Reference: US20160024208A1 (Regeneron, published 2016)

Experiments:
[1] = molecular target: T1, C-Term Biotin Nav1.7 (3-3) peptide, mouse (mouse, C-terminal biotin attached via a G4S linker); experiment: SPR, captured antibody, peptide analyte
T1 construct: Synthetic peptide; also called Mouse Nav1.7 3-3 C-term biotin
T1 peptide: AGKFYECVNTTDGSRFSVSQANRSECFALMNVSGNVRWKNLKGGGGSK
How it was run: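 Peptide analytes flowed at multiple concentrations over anti-Nav1.7 antibodies held by an anti-Fc capture surface. After reference-surface and buffer-blank subtraction, a global 1:1 Langmuir fit gave ka and kd, with KD as kd/ka and dissociative half-life as ln2/kd.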

[2] = molecular target: T2, N-Term Biotin-Nav1.7 (3-3) peptide, human (same sequence of EC3-3 for mulatta) (human (same sequence of EC3-3 for …, not fully specified; N-terminal biotin attached via a G4S linker); experiment: ELISA on coated peptide, antibody 1 ug/ml, OD450 grade; Human
T2 construct: ELISA peptide
T2 peptide: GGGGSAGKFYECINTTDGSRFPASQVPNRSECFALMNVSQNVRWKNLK
Description: Anti-Naᵥ 1.7 antibodies were tested for their ability to bind to the Naᵥ 1.7 peptides. The various peptides were coated overnight onto 96-well Nunc Immunosorp plates at a concentration of 4 μg/mL in PBS, followed by blocking for 1 hour in a suitable blocking agent. For biotinylated peptides, avidin was first coated on Nunc Immunosorp plates at 2 μg/mL in PBS overnight, followed by blocking as described, and the plate was then coated with biotinylated peptides at a concentration of 0.4 μg/mL and incubated for 1 hour at room temperature. Purified anti-Naᵥ 1.7 antibodies were diluted to a final concentration of 0.1 μg/mL and 1.0 μg/mL and added to the wells of the coated microtiter plates followed by incubation for 1 hour at room temperature. Bound antibodies were detected with horseradish peroxidase (HRP) conjugated anti-mouse or anti-human IgG (Jackson Immuno Research Lab, West Grove, Pa.) depending on the antibody species and developed by colorimetric response using tetramethylbenzidine (TMB) substrate (BD Biosciences). Absorbance was read at OD₄₅₀ on a plate reader for 0.1 second.
Values in Table 11 represent absolute binding ranges (at OD450) to plate-coated peptides for antibodies added at 1 μg/ml as follows: OD450<0.2: −; 0.2<OD450<1: +; 1<OD450<2: ++; 2<OD450<4: +++; NT: Not Tested.

[3] = molecular target: T3, C-term Biotin Nav1.7 (3-3) peptide, human (human, C-terminal biotin attached via a G4S linker); experiment: SPR, captured biotin-peptide, antibody analyte
T3 construct: Synthetic peptide; also called Human Nav1.7 3-3 C-term biotin
T3 peptide: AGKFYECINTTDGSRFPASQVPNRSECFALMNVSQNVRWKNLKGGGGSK

B1: H1M852N (antibody, V domains shown)
VH: QVQLVESGGGVVQPGRSLTLSCAASGFMFNRFGMHWVRQAPGKGLDWVAVIWYDGSNKYYADSVKGRFTISRDNSKNTLYLQVNSLRAEDTAVYYCAREGTPHYYDSSGLDYWGQGTLVTVSS
VL: AIQMTQSPSSLSAYVGDRVTITCRASQDIRNDLGWYQQKPGKAPNLLIYDISSLQSGVPSRFSGSGSGTDFTLTISSLQPEDFATYYCLQDYNYPLTFGGGTKVEIK
notes: constant region may differ; also called H4H852N
- binding result [1]: no binding
- OD450 [2]: 1 to 2 od
- Kd [3]: 117 nM
- t1/2 [3]: 1.3 min
